Assay results as given in the supplement of paper PMC6757056.
± gives the standard deviation of the averaged measurements.

B1: library; a variant is named by its letters at N, in order (parent)
chain: GCUGUCACCGAGAAACUGUGAAGUAUAUCUUAAACCUGGGCACUUAAAAGAUAUAUGGAGUUAGUAGUGCAACCUGCUCGGUCUGAUGAGUCCNNNNNNGGACGAAACAGC

Key:
cyclic di-GMP [1] = variants of: B1; assay: normalized RNA/DNA level without ligand (relative to sTRSVctl = 100) (log10 (% of sTRSVctl)); HEK293T; ligand: cyclic di-GMP (c-di-GMP-II aptamer); higher = less ribozyme self-cleavage, higher mRNA level; details: reporter: mCherry (pCS4076), ligand present: no
How it was run: (§1)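 Ribozyme switch library plasmids with mCherry reporters (eGFP in certain ligand experiments) went into HEK293T cells at 4 µg per 6-well well. Where ligand was used, it was applied 1 h before transfection, and total RNA was extracted with EDTA 72 h later for reverse transcription, amplification, barcoding and sequencing. RNA level is the RNA-to-DNA read ratio normalized to a spiked-in non-cleaving sequence or to the leading sequences, then scaled and log-transformed. Scaling was ×100 with log10, the leading set comprised 25 sequences, and the cutoff was ≥100 DNA reads.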

cyclic di-GMP [2] = variants of: B1; assay: normalized RNA/DNA level with ligand (relative to sTRSVctl = 100) (log10 (% of sTRSVctl)); HEK293T; ligand: cyclic di-GMP (c-di-GMP-II aptamer); ligand concentration (+) RNA-Seq: 1 mM; higher = less ribozyme self-cleavage, higher mRNA level; details: reporter: mCherry (pCS4076), ligand present: yes
How it was run: as §1

Variant	normalized RNA/DNA level without ligand (log10) (cyclic di-GMP [1])	normalized RNA/DNA level with ligand (log10) (cyclic di-GMP [2])
UGUAGC	1.73 ± 0.043	1.83 ± 0.15
GAGGAU	1.66 ± 0.022	1.77 ± 0.13
CUAAAC	1.7 ± 0.018	1.79 ± 0.095
AAGCCG	1.732 ± 0.0043	1.82 ± 0.069
UGCCCA	1.88 ± 0.032	1.96 ± 0.096
UGAAGC	1.679 ± 0.0046	1.83 ± 0.14
GCGUUA	1.54 ± 0.054	1.75 ± 0.11
CCCAUG	1.53 ± 0.08	1.73 ± 0.13
CUACAG	1.73 ± 0.023	1.87 ± 0.035
AAAUCU	1.7 ± 0.026	1.82 ± 0.13
UUGAGA	1.58 ± 0.071	1.77 ± 0.11
CGAGGC	1.74 ± 0.027	1.85 ± 0.079
CGGUGC	1.785 ± 0.007	1.9 ± 0.12
UUUGGG	1.735 ± 0.0076	1.85 ± 0.074
GCCCAA	1.616 ± 0.011	1.77 ± 0.17
ACGGCU	1.56 ± 0.018	1.75 ± 0.12
GGCUAA	1.55 ± 0.09	1.71 ± 0.14
ACUAAC	1.607 ± 0.015	1.76 ± 0.15
UGCGCA	1.711 ± 0.014	1.86 ± 0.061
CAAUAG	1.73 ± 0.024	1.83 ± 0.14
GGUAGC	1.671 ± 0.014	1.8 ± 0.12
GUUACA	1.661 ± 0.0095	1.8 ± 0.11
GCAGCA	1.82 ± 0.022	1.89 ± 0.092
UUCUGG	1.79 ± 0.04	1.89 ± 0.085

Variant	normalized RNA/DNA level without ligand (log10) (cyclic di-GMP [1])	normalized RNA/DNA level with ligand (log10) (cyclic di-GMP [2])
AGCUUU	1.712 ± 0.0062	1.85 ± 0.12
GGUUUA	1.582 ± 0.0053	1.79 ± 0.099
CUCCGG	1.79 ± 0.072	1.87 ± 0.17
CUAAGC	1.75 ± 0.039	1.87 ± 0.077
CCAAGC	1.59 ± 0.059	1.76 ± 0.13
UAGCCA	1.71 ± 0.04	1.86 ± 0.1
UGGGGC	1.767 ± 0.012	1.91 ± 0.1
CAGCCU	1.59 ± 0.055	1.79 ± 0.12
AUCAAC	1.61 ± 0.063	1.8 ± 0.09
CCUGAG	1.55 ± 0.077	1.76 ± 0.15
AGGGCU	1.69 ± 0.034	1.85 ± 0.088
AGUAUA	1.47 ± 0.015	1.69 ± 0.11
CAUAUU	1.45 ± 0.13	1.64 ± 0.067
GGUACC	1.82 ± 0.038	1.93 ± 0.12
AGUUUG	1.65 ± 0.088	1.77 ± 0.096
CGUAAG	1.77 ± 0.056	1.86 ± 0.12
GUCAGA	1.56 ± 0.057	1.76 ± 0.076
ACAGGU	1.42 ± 0.16	1.64 ± 0.07
UGAGCU	1.76 ± 0.0029	1.87 ± 0.1
GGGUAC	1.73 ± 0.012	1.8 ± 0.045
CUGCGC	1.823 ± 0.0074	1.92 ± 0.052
GCAUGG	1.46 ± 0.15	1.67 ± 0.064
CUGAAG	1.59 ± 0.018	1.73 ± 0.03
CACGGG	1.63 ± 0.04	1.8 ± 0.06

Variant	normalized RNA/DNA level without ligand (log10) (cyclic di-GMP [1])	normalized RNA/DNA level with ligand (log10) (cyclic di-GMP [2])
UCGCAU	1.572 ± 0.0067	1.76 ± 0.092
UCUACG	1.74 ± 0.011	1.89 ± 0.092
ACCACA	1.6 ± 0.019	1.76 ± 0.13
GGUGUU	1.63 ± 0.037	1.86 ± 0.094
GGGCGC	1.84 ± 0.027	1.92 ± 0.091
GUACUG	1.58 ± 0.033	1.78 ± 0.081
CCAGCU	1.682 ± 0.011	1.86 ± 0.084
UAUCAU	1.656 ± 0.0018	1.81 ± 0.12
CUCGUG	1.63 ± 0.047	1.82 ± 0.088
GUCCCU	1.77 ± 0.024	1.92 ± 0.091
AAGAAG	1.46 ± 0.049	1.66 ± 0.093
AGUCAA	1.48 ± 0.039	1.69 ± 0.1
AUACUG	1.56 ± 0.049	1.73 ± 0.086
CUCAGC	1.76 ± 0.076	1.89 ± 0.13
GCAUUU	1.55 ± 0.037	1.74 ± 0.095
GCACCG	1.72 ± 0.037	1.86 ± 0.11
UUCGUU	1.736 ± 0.0061	1.87 ± 0.14
GGCUUU	1.73 ± 0.03	1.88 ± 0.075
AGAGUA	1.66 ± 0.029	1.73 ± 0.081
AUGAUC	1.65 ± 0.049	1.82 ± 0.087
UACCAA	1.66 ± 0.022	1.8 ± 0.12
ACCCCU	1.74 ± 0.036	1.86 ± 0.076
UCUAGU	1.66 ± 0.054	1.83 ± 0.057
AAAAAU	1.547 ± 0.0027	1.72 ± 0.13

Variant	normalized RNA/DNA level without ligand (log10) (cyclic di-GMP [1])	normalized RNA/DNA level with ligand (log10) (cyclic di-GMP [2])
UUGCUG	1.7171 ± 3.9e-05	1.84 ± 0.14
CGCGUG	1.62 ± 0.034	1.79 ± 0.12
UUACCG	1.8 ± 0.035	1.88 ± 0.11
CCGAAC	1.56 ± 0.058	1.72 ± 0.12
CCUCGG	1.838 ± 0.011	1.94 ± 0.025
AAUGAC	1.63 ± 0.018	1.79 ± 0.081
CCCUGA	1.61 ± 0.068	1.82 ± 0.068
GCGCUG	1.77 ± 0.049	1.84 ± 0.14
AUUGGG	1.54 ± 0.16	1.75 ± 0.078
AGCUGG	1.64 ± 0.043	1.81 ± 0.12
UCAAGG	1.8 ± 0.067	1.89 ± 0.12
AGGAGC	1.61 ± 0.065	1.7 ± 0.13
ACCAGA	1.39 ± 0.11	1.6 ± 0.13
GGCUCG	1.78 ± 0.055	1.87 ± 0.036
GUCUAG	1.62 ± 0.066	1.79 ± 0.072
AUUCCG	1.75 ± 0.021	1.84 ± 0.078
CCGUAC	1.62 ± 0.027	1.75 ± 0.11
CAGCCG	1.847 ± 0.0028	1.9 ± 0.074
GCAACC	1.647 ± 0.0045	1.79 ± 0.097
GCGCUU	1.61 ± 0.043	1.78 ± 0.13
AAGGGC	1.61 ± 0.027	1.75 ± 0.13
CGGAGU	1.63 ± 0.03	1.8 ± 0.1
UGGGAU	1.55 ± 0.12	1.75 ± 0.11
ACCAGC	1.63 ± 0.064	1.77 ± 0.079

Variant	normalized RNA/DNA level without ligand (log10) (cyclic di-GMP [1])	normalized RNA/DNA level with ligand (log10) (cyclic di-GMP [2])
ACACCC	1.73 ± 0.012	1.86 ± 0.069
GGCCUU	1.791 ± 0.013	1.9 ± 0.059
UAGAUC	1.595 ± 0.014	1.82 ± 0.056
GAGAAC	1.65 ± 0.031	1.8 ± 0.09
CCGACU	1.59 ± 0.082	1.74 ± 0.077
AGGUCU	1.73 ± 0.045	1.85 ± 0.14
UUCAGU	1.75 ± 0.023	1.89 ± 0.069
UCCGCU	1.75 ± 0.052	1.88 ± 0.08
UAGUCA	1.768 ± 0.017	1.91 ± 0.076
UCAGGC	1.71 ± 0.027	1.84 ± 0.11
UUCCAC	1.7863 ± 0.00044	1.88 ± 0.13
GUCUCA	1.7 ± 0.035	1.83 ± 0.14
GAACAA	1.55 ± 0.03	1.7 ± 0.14
AACUUU	1.737 ± 0.004	1.85 ± 0.09
UGACCU	1.72 ± 0.016	1.87 ± 0.087
AGUAUU	1.68 ± 0.037	1.83 ± 0.1
AAACGU	1.47 ± 0.095	1.62 ± 0.18
CUCUGU	1.78 ± 0.062	1.91 ± 0.06
AGUCGA	1.71 ± 0.036	1.84 ± 0.081
AUUGUG	1.605 ± 0.014	1.84 ± 0.11
